Patent US9783615B2, “Combination treatment of cancer” (UNIVERSITÉ DE LIÈGE, priority 2012, dated 2017)
Where a chain is given by its changes, count along the chain named. Entries after “also recorded” stand apart in the source; their conditions may differ. Blank lines part the entries; values can stand above or below the molecule they belong to.

How the values were obtained:
[1] = tested on: MDA-MB231 cells expressing MT4-MMP; assay: In vitro 3D Matrigel proliferation assay with DNA quantification; type: cell-based, human; conditions: 7 days; for effect on MT4-MMP-mediated mitogenic effect (cell proliferation, DNA content): 3D Matrigel matrix, signaling pathway inhibitors added to the culture medium
Protocol: The medium was changed every three days.
Inhibition of MT4-MMP-dependent mitogenic effect of cancer cells was performed in 3D culture matrix. […] The medium was changed every three days.

[2] = tested on: MDA-MB 231 control (CTR) cells; conditions: 3D Matrigel matrix, 7 days
Protocol: Matrigel® mixed with an equal volume of culture medium was coated onto 24-well plates (300 μl/plate). Cells (104) suspended in 250 μl of medium were mixed with the same volume of cold Matrigel® and seeded on the previously coated Matrigel® layer. In some assays, growth factor-free Matrigel® was used (BD, Bioscience). For signaling pathway inhibition in the 3D culture model, cells were incubated in Matrigel® matrix and 24 h later several inhibitors were added to the culture medium at the indicated concentrations:
SB203580, Genistein, U0126, Wortmannin, PP2, SP600125, AG538 (Sigma), PD0332991 (Axon Medchem, Groningen, The Nederlands), MDL-12, GF109203x, AG1478 (Calbiochem, Gibbstown, N.J.). The medium was changed every three days. After 7 days, cells were recovered from 3D cultures upon treatment with 500 μl of Dispase (BD, Bioscience) for 2 h at 37° C. After two washes in PBS, cell pellet was diluted in PBS (1 ml) and sonicated.

[3] = molecular target: T1, recombinant MT4-CAT protein (Homo sapiens, UniProt Q9ULZ9); assay: Antibody affinity on immobilized protein in 96 well-plates (absorbance at 450 nm); type: binding; conditions: 0-3 μg of MT4-CAT per well
T1 construct: Enzymatic activity of the recombinant catalytic domain of MT4-MMP (MT4CAT) was monitored
T1 sequence (Q9ULZ9 126-295 limits assumed): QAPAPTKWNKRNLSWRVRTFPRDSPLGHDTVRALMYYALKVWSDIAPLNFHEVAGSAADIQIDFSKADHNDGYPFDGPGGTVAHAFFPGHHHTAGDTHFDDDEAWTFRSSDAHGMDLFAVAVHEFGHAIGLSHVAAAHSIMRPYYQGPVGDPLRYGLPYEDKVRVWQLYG
Protocol: For determining antibody affinity recombinant MT4-CAT protein and BSA (background) was immobilized on 96 well-plates [0-3 μg of MT4-CAT in 15 mM Na-bicarbonate (pH 9.6)/well] for 18 h, at +4° C. Non-specific blockage was carried out by incubation of 3% (w/v) BSA/PBS, 0.01% (v/v) Tween-20, for 1 h, at +4° C. The detection of the bound antibody was carried out with 1:2000 diluted mouse anti-myc antibody (clone 9E10, Sigma M5546) incubated for 1 h, at room temperature, followed by 15 min incubation with HRP-conjugated anti-mouse antibody. After adding TMB substrate, the absorbance was measured at 450 nm Multiskan FC (Thermo Scientific, Rockford, USA).

MT1-MMP (MMP14) = molecular target: T2, MT1-MMP (MMP14) (Homo sapiens, UniProt P50281); assay: Antibody specificity by Western blot; type: binding
T2 construct: but not to MT1-MMP, MT3-MMP and MMP 2 catalytic domains

MT3-MMP (MMP16) = molecular target: T3, MT3-MMP (MMP16) (Homo sapiens, UniProt P51512); assay: Antibody specificity by Western blot; type: binding
T3 construct: but not to MT1-MMP, MT3-MMP and MMP 2 catalytic domains

[4] = molecular target: T4, recombinant wild-type MT4-MMP (Homo sapiens, UniProt Q9ULZ9); assay: Antibody specificity by ELISA; type: binding; conditions: 3 μg protein
T4 construct: made in house
T4 sequence (Q9ULZ9 126-565): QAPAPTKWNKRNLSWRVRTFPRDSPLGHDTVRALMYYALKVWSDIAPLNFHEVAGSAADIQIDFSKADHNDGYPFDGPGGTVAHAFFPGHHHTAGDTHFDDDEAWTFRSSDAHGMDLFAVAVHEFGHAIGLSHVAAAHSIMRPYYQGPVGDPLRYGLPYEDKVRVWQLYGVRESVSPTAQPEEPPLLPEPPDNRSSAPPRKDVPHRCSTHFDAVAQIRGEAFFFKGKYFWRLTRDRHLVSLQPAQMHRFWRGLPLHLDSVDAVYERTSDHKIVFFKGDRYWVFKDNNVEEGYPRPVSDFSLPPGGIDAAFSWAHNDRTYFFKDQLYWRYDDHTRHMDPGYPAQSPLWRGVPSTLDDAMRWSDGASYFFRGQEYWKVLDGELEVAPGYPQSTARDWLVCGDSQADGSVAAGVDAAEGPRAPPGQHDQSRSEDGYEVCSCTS
Description: (§1) The specificity of K4H7 antibody evaluated by ELISA. […] BSA (column 2) and the absence of protein (column 1: blank) were used as control.

[5] = molecular target: T5, inactive mutated form of MT4-MMP (E249A) (Homo sapiens, UniProt Q9ULZ9, E249A); assay: Antibody specificity by ELISA; type: binding
T5 sequence (Q9ULZ9 126-565 E249A): T4 sequence (Q9ULZ9 126-565) with E124A
Description: as §1

MMP2 = assay: Antibody specificity by Western blot; type: binding
[6] = molecular target: T6, MT4-MMP inactivated by mutation in its catalytic site (E249A) (Homo sapiens, UniProt Q9ULZ9, E249A); assay: Antibody specificity by Western blot; type: binding; conditions: scFV 1 μg/ml
T6 sequence (Q9ULZ9 126-565 E249A): T4 sequence (Q9ULZ9 126-565) with E124A
Protocol: (§2) In detail, antibody specificity was assessed by Western blot. Recombinant MT4-MMP (1 μg) was incubated with purified scFV clones (1 μg/ml) that contain a myc tag. Membranes were first incubated with a monoclonal mouse anti-myc antibody (clone 9E10, Sigma M5546) (1/1000) and then with HRP conjugated anti-mouse antibody (FIG. 14 A).

[7] = molecular target: T7, active wild type recombinant MT4-MMP (Homo sapiens, UniProt Q9ULZ9); assay: Antibody specificity by Western blot; type: binding; conditions: scFV 1 μg/ml
T7 construct: made in house
T7 sequence (Q9ULZ9 126-565): T4 sequence (Q9ULZ9 126-565)
Protocol: as §2

[8] = molecular target: T8, recombinant catalytic domain of MT4-MMP (MT4CAT) (Homo sapiens, UniProt Q9ULZ9); assay: Inhibition of MT4-MMP enzymatic activity: cleavage of quenched fluorogenic peptide substrate (TACE substrate M-2255); type: biochemical; conditions: scFV clones at 14 nM; substrate 30 μM
T8 construct: Enzymatic activity of the recombinant catalytic domain of MT4-MMP (MT4CAT) was monitored
T8 sequence (Q9ULZ9 126-295 limits assumed): T1 sequence (Q9ULZ9 126-295 limits assumed)
Protocol: Inhibition of enzymatic activity of MT4-MMP was quantified by measuring the cleavage of quenched fluorogenic peptide substrate by the recombinant catalytic domain of MT4-MMP (MT4-CAT) in the presence or absence of MT4-MMP blocking antibodies (scFV). MT4-CAT (4.5 μM) was pre-incubated with MT4-MMP blocking antibodies (14 nM) for 30 min at 4° C. in buffer containing (50 mM Tris-HCl (pH 7.4); 5 mM CaCl2; ZnCl2 1 μM; 0.005%, Brij, 2% DMSO) before incubation with 30 μM of the fluorogenic substrate (pro-tumor necrosis factor-α converting enzyme (TACE) fluorogenic peptide substrate; Mca-(endo-1a-Dap(Dnp))-TNF-α (−5 to +6) amide (human), M-2255, Bachem AG, Switzerland).
Neutralizing capacity of antibodies. The enzymatic activity of the recombinant catalytic domain of MT4-MMP (MT4CAT) was monitored by the cleavage of quenched fluorogenic peptide substrate pro-tumor necrosis factor-α converting enzyme (TACE) (M-2255, BACHEM) and using Luminescence spectrometer (SPECTRA MAX; GIMINI). […] The cleavage of quenched fluorogenic peptide was monitored by measuring relative fluorescence units (RFU) during the incubation time (seconds) in the absence of inhibitor (MTCAT+No inhibitor) or in the presence of BB94 (20 μM) or of the scFV clones (14 nM). […]

T3 sequence (P51512 120-291 limits assumed, species assumed): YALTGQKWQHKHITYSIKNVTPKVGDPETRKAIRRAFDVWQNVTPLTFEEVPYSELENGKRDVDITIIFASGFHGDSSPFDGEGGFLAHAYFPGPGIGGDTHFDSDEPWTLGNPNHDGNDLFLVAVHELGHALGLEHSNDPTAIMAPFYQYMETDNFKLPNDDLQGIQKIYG

Molecule: N#C/C(=C\c1ccc(O)c(O)c1)C(=O)c1ccc(O)c(O)c1 [AG538]
effect on MT4-MMP-mediated mitogenic effect (cell proliferation, DNA content) [1]: No change

Molecule: COc1cc2ncnc(Nc3cccc(Cl)c3)c2cc1OC [AG1478]
effect on MT4-MMP-mediated mitogenic effect (cell proliferation, DNA content) [1]: significantly reduced

Molecule: CC(=O)c1c(C)c2cnc(Nc3ccc(N4CCNCC4)cn3)nc2n(C2CCCC2)c1=O [PD0332991]
effect on MT4-MMP-mediated mitogenic effect (cell proliferation, DNA content) [1]: inhibited

Molecule: CC(C)(C)n1nc(-c2ccc(Cl)cc2)c2c(N)ncnc21 [PP2, 4-amino-5-(4-chlorophenyl)-7-(t-butyl)pyrazol[3,4-d]pyrimidine]
effect on MT4-MMP-mediated mitogenic effect (cell proliferation, DNA content) [1]: No change

Molecule: N#CC(=C(/N)Sc1ccccc1N)/C(C#N)=C(\N)Sc1ccccc1N [U0126]
effect on proliferative rate in control cells [2]: without affecting the proliferative rate
effect on MT4-MMP-mediated mitogenic effect (cell proliferation, DNA content) [1]: markedly inverted the proliferative phenotype

Molecule: C#Cc1cccc(Nc2ncnc3cc(OCCOC)c(OCCOC)cc23)c1 [erlotinib]
inhibition of proliferation of cancer cells (DNA content) ([1]; single treatment 1 μM, 3D Matrigel): partially inhibited; also recorded: reduced cell proliferation

Molecule: O=c1c(-c2ccc(O)cc2)coc2cc(O)cc(O)c12 [genistein]
effect on MT4-MMP-mediated mitogenic effect (cell proliferation, DNA content) [1]: strongly inhibited

recognition of MT1-MMP (MMP14) (MT1-MMP (MMP14)): do not recognize
recognition of MT3-MMP (MMP16) (MT3-MMP (MMP16)): do not recognize
binding to wild-type MT4-MMP [4]: binds specifically
binding to inactive MT4-MMP (E249A) [5]: binds specifically
recognition of MT4-MMP E249A mutant [6]: recognized specifically
recognition of wild type recombinant MT4-MMP [7]: recognized specifically
B1: K4H7: human scFv antibody that specifically binds and neutralizes MT4-MMP; VH SEQ ID NO: 26, VL SEQ ID NO: 27, complete scFv SEQ ID NO: 28 (protein)
scFv: QVQLVQSGGGLVKPGRSLRLSCTASGFTFGDYAMSWFRQAPGKGLEWVGFIRSKAYGGTTEYAASVKGRFTISRDDSKSIAYLQMNSLKTEDTAVYYCTRGSSGWFLNWFDPWGQGTLVTVSSLEGGGGSGGGGSGGGGSELETTLTQSPATLSLSPGERATLSCRASQSISSSYLAWYQHKPGQAPRLLIYGASRRATGIPDRFSGSGSGTDFSLTISRLEPEDFAVYYCLHYGSSKWTFGQGTKVEIKR
affinity / capacity to bind recombinant MT4-MMP, compared among the three scFV clones [3]: highest capacity to bind; also recorded: highest affinity
reduction of cell proliferation (DNA content) ([1]; single treatment 20 μg/ml, 3D Matrigel): reduced cell proliferation
recognition of MMP2 (MMP2): do not recognize
inhibition of MT4-MMP enzymatic activity (neutralizing capacity) [8]: able to inhibit; also recorded: inhibited completely
